Here are results for one sequence from patent publication US20020037514A1, “Identification of nuclear receptor-dependent coregulator recruitment” (priority 2000, published 2002).

The assay concerns the target T1, RARα-V5/RXRγ/DR-5 ternary complex (Homo sapiens, UniProt P10276).
T1 construct: the nuclear receptor subunits used in the invention are full length nuclear receptor monomer subunits; expressed in transfected cells; host or cells: CV-1 (green monkey kidney), whole-cell lysate
T1 sequence (P10276 1-462): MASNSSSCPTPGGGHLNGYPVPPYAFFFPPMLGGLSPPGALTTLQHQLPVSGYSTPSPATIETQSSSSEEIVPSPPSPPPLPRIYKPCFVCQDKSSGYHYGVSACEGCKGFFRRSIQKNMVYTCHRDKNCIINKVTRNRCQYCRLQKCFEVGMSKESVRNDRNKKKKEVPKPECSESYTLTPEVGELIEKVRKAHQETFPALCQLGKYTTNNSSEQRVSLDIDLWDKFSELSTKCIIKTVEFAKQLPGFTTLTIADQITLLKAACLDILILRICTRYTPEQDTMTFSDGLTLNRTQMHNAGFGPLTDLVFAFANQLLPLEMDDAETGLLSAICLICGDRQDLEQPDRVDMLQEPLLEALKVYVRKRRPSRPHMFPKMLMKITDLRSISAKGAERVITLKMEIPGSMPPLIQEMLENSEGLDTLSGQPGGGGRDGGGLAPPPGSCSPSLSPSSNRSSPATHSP
T1 sequence (P28705 1-463 partner): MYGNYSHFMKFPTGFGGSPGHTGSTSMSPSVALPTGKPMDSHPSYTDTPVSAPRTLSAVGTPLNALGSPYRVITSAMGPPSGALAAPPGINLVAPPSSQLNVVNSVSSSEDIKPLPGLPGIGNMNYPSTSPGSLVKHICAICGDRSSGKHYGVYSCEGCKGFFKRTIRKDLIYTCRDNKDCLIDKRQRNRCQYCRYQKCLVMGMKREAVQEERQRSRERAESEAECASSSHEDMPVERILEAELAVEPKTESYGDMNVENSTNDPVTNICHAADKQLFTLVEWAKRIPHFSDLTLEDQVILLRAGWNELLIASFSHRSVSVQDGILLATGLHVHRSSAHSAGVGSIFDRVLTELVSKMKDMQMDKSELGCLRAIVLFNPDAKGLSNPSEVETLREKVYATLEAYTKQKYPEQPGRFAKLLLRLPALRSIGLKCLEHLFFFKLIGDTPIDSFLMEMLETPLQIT
Briefly: LXD peptide competition of ATRA-induced co-activator recruitment (Example 7, FIG. 8A). The assay is classed as biochemical. The settings on record: SRC-1 peptides at 40 μl (so in the source), DR-5 RARE. From the text:
Nolte, R. T. et al., Nature 395:137-143 (1998). We addressed the importance of each of the three LXDs in mediating co-activator-receptor interaction using synthetic peptides comprising the LXD1, LXD2 or LXD3 amino acid sequences as competitors with SRC-1 in the DNA modified immunoprecipitation methods of the present invention. These peptides have the following amino acid sequences (with the characteristic LXXLL motif shown in bold):
Transfection, DR-5 oligonucleotide treatment, ligand treatment, immunoprecipitation and detection of associated co-factors were performed essentially as shown in the previous Examples. CV-1 cells were transfected with plasmids expressing either RARα/RXRγ-V5 or with RARγ/RXRα-V5. Synthetic LXD peptides were added to the cell lysate before the addition of retinoids at a concentration of 20 (ACTR) and 40 (SRC-1) […].

Take “SLTERHKILHRLLQEGSPSDIT (Nuclear co-activator LXD-containing peptide) [SRC-1 LXD2]”: the “effect of peptide on ATRA-induced recruitment of SRC-1” value was “completely abolished”.
